Reference: patent publication US20040253689A1 (published 2004)

Key:
[1] = molecular target: T1, ^125I-IGF-II (human, UniProt P01344 25-91, radioiodinated (^125I, 2000 Ci/mmol); labelled residue not stated); assay: solution binding of ^125I-IGF-II, charcoal separation; reference wild-type CHO-hIGFBP-3
T1 construct: also called insulin growth factor-II
Description: (§1) Binding of ¹²⁵I-IGF-I and ¹²⁵I-IGF-II in solution —¹²⁵I-IGF-I or ¹²⁵I-IGF-II (˜25,000 cpm) was incubated overnight at 4° C. with different concentrations of recombinant hIGFBP-3 standard (R&D Systems), or purified wild-type or mutant CHO-hIGFBP-3 in 0.4 ml phosphate-buffered saline supplemented with 0.2% fatty acid-free bovine serum albumin. Following the addition of 0.5 ml of a 5% suspension of activated charcoal (Sigma) to adsorb unbound IGF tracer, the samples were centrifuged. Radioactivity bound to hIGFBP-3 remained in the charcoal supernate and was quantified in a gamma counter (Yang et al. (1993), supra). DNA synthesis—DNA synthesis was measured in CCL64 cells by the incorporation of the thymidine analog BrdU into newly synthesized as previously described (Wu et al. (2000), supra). Quiescent cells in serum-free medium were stimulated to synthesize DNA by adding EGF. EGF was used to stimulate proliferation instead of serum to avoid introducing IGFs. In brief, the cells were plated in 96-well microtiter plates (30,000 cells/well) in 0.2 ml of DMEM containing 10% fetal calf serum, and incubated for 3 h at 37° C. […] BrdU (10 μM) was added for 2-3 h, the cells were fixed, and BrdU incorporation was quantified by an immunocolorimetric assay using monoclonal antibody to BrdU conjugated to peroxidase. […] The absorbance at 450 nm was measured in a scanning multiwell spectrophotometer.

[2] = molecular target: T2, ^125I-IGF-I (human, UniProt P05019 49-118, radioiodinated (^125I, 2000 Ci/mmol); labelled residue not stated); assay: solution binding of ^125I-IGF-I, charcoal separation; reference wild-type CHO-hIGFBP-3
T2 construct: also called insulin growth factor-I
T2 sequence (P05019 49-118 limits assumed): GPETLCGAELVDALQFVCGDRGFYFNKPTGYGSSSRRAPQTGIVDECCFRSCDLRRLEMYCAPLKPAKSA
Description: as §1

T1 sequence (P01344 25-91 limits assumed): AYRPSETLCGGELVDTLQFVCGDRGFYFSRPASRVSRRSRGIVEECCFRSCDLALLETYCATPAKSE

| Binder | fold lower concentration of wild-type CHO-hIGFBP-3 that still bound more than the mutant at 200 ng/ml [1] | fold lower concentration of wild-type CHO-hIGFBP-3 that still bound more than the mutant at 200 ng/ml [2] |
| --- | --- | --- |
| 4m-hIGFBP-3 (R75A, L77A, L80A, L81A mutant CHO-hIGFBP-3) (other, human, mature; Same tagged construct as the wild-type CHO-hIGFBP-3, with four alanine substitutions; also called quadruple mutant) HHHHHHGMASMTGGQQMGRDLYDDDDKGASSAGLGPVVRCEPCDARALAQCAPPPAVCAELVREPGCGCCLTCALSEGQPCGIYTERCGSGLRCQPSPDEAAPAQAAADGRGLCVNASAVSRLRAYLLPAPPAPGNASESEEDRSAGSVESPSVSSTHRVSDPKFHPLHSKIIIIKKGHAKDSQRYKVDYESQSTDTQNFSSESKRETEYGPCRREMEDTLNHLKFLNVLSPRGVHIPNCDKKGFYKKKQCRPSKGRKRGFCWCVDKYGQPLPGYTTKGKEDVHCYSMQSK | > 80 fold | > 80 fold |
| 6m-hIGFBP-3 (I56A, Y57A, R75A, L77A, L80A, L81A mutant CHO-hIGFBP-3) (other, human, mature; Same tagged construct as the wild-type CHO-hIGFBP-3, with six alanine substitutions; Positions count on mature hIGFBP-3, not on the precursor; also called 6m-CHO-hIGFBP-3) HHHHHHGMASMTGGQQMGRDLYDDDDKGASSAGLGPVVRCEPCDARALAQCAPPPAVCAELVREPGCGCCLTCALSEGQPCGAATERCGSGLRCQPSPDEAAPAQAAADGRGLCVNASAVSRLRAYLLPAPPAPGNASESEEDRSAGSVESPSVSSTHRVSDPKFHPLHSKIIIIKKGHAKDSQRYKVDYESQSTDTQNFSSESKRETEYGPCRREMEDTLNHLKFLNVLSPRGVHIPNCDKKGFYKKKQCRPSKGRKRGFCWCVDKYGQPLPGYTTKGKEDVHCYSMQSK | > 80 fold | 80 fold |
